Test results taken from US7960513B2, “Antibody against a human ADAM protease” (Monash University, priority 2004, dated 2011).

T1: EphA3 (wild type, expressed in cells) (UniProt P29320 21-983, limits assumed)
T1 construct: whole, on cells; also called wt EphA3; w/t EphA3
T1 sequence (looked up): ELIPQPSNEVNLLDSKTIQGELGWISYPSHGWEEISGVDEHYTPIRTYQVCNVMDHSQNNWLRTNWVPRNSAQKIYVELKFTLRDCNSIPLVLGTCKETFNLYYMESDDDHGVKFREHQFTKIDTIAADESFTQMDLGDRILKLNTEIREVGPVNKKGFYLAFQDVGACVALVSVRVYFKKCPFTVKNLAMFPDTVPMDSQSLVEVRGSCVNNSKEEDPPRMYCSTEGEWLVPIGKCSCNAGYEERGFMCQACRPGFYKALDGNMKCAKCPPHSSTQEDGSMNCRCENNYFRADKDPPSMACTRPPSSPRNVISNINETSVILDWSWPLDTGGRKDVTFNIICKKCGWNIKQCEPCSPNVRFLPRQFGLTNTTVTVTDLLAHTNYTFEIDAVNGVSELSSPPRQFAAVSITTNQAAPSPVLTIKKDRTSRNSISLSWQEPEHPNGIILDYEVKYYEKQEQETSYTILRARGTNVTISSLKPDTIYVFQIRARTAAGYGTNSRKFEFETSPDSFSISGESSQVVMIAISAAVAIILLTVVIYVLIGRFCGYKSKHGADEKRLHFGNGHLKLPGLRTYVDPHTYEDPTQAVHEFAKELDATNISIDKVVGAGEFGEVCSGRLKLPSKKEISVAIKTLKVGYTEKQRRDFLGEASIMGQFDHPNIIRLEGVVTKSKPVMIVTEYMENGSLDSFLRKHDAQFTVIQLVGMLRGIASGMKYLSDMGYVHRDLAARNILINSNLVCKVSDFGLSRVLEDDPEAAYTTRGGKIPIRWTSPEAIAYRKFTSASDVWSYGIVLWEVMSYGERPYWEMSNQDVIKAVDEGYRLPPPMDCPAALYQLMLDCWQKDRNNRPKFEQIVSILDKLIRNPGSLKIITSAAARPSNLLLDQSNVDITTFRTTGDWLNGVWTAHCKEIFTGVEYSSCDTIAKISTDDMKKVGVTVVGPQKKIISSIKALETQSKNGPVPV


Columns and labels:
[1] = tested on: EphA3-expressing 293 cells; experiment: Ephrin-A5-Fc cleavage in EphA3/293 cells overexpressing ADAM10 constructs (Western blot of recovered ephrin); format: cell-based, human; details: overexpression of ADAM10 construct; clustered ephrin-A5-Fc
Experimental: (§1) FIG. 4. Mutation of acidic residues in the ADAM10 Cys-rich domain affects binding to EphA3/ephrin-A5 and cleavage of ephrin-A5. • A. In vitro binding of mutant ADAM10D+C to EphA3/ephrin-A5. ADAM10D+C[EEE-A] containing Alanine substitutions of Glu573, Glu578, Glu579 (lanes 1-4) or ADAM10D+C[RDD-A] (Ala substitutions of Arg525, Asp526, Asp527, lanes 5-8) were incubated alone (lanes 1, 5), or together with EphA3-Fc (lanes 2, 6), ephrin-A5-Fc (lanes 3, 7), or EphA3-Fc and ephrin-A5 (lanes 4, 8). Complexed proteins were extracted with Protein-A-Sepharose beads and analysed as in FIG. 2. • B. Binding of wild-type and mutant ADAM10ΔMP to EphA3 in cells. EphA3/293 cells were transfected with HA-ADAM10ΔMP or HA-ADAM10ΔMP [EEE-A]. Parental and transfected cells were treated for 10 min with or without pre-clustered ephrin-A5-Fc and lysed. Anti-HA and anti-EphA3 immunoprecipitates, and total cell lysates were analysed by Western blotting with indicated antibodies. • C. Ephrin-A5-Fc cleavage in cells expressing wt and 3A mutant ADAM10. EphA3/293 cells were transfected with full length, wild-type (wt) ADAM10, dominant-negative ADAM10ΔMP, or ADAM10 bearing alanine (3A) or 3 lysine (3K) substitutions of Glu573, 578, 579. Following exposure to clustered (+) or non-clustered ? ephrin-A5 Fc, cleaved ephrin was recovered and analysed by Western Blot as described in FIG. 1c. […]

HEK293 cells = experiment: Confocal imaging of co-cultured EphA3-diHcRed/ADAM10 and GFP-ephrin expressing cells; format: cell-based, human; details: co-incubation with GFP-ephrin-A5 or GFP-ephrin-A2 cells for 40 min
Experimental: as §1, with “1c. Parallel anti-HA blots of whole-cell lysates reveal the expression levels of ADAM10 constructs. • D. Model of ADAM protein modules and cleavage mechanism. Left, schematic representation of ADAM proteinases protein domain organization; right, schematic representation of the proposed interactions and positioning of ADAM10, EphA3, and Ephrin-A5 between interacting cells, leading to controlled ephrin-cleavage. • E. Ephrin cleavage from the cell surface is blocked by overexpression of 3A-mutant ADAM10. HEK293 cells were co-transfected with (red-fluorescent) EphA3-diHcRed and either wt ADAM10, ADAM10 bearing alanine (3A) substitutions at Glu573, Glu578, and Glu579, or dominant-negative ADAM10ΔMP.” for “1c.”

[2] = target: T1, EphA3 (wild type, expressed in cells); experiment: anti-EphA3 immunoprecipitation, anti-ADAM10 Western blot
Experimental: Cells were cultured in DME/10% FCS and transfected with Lipofectamine 2000 (Invitrogen), and in some experiments treated with the metalloprotease inhibitors 1,10-O-Phenanthroline (OPN, 4h, 1 mM; Mumm et al., 2000, Mol. Cell. 5 197-206) and TAPI1 (1h, 50 µM; Yan et al., 2002, J Cell Biol. 158 221-6). HEK293 cells were transfected with EphA3 (Wicks et al., 1992, Proc. Natl. Acad. Sci. USA 89 1611-1615) or ephrin-A5 (Winslow et al., 1995, Neuron 14 973-81; Lackmann et al., 1996, Proc. Natl. Acad. Sci. USA 93 2523-2527) in pEfBos vectors containing puromycin or gentamycin resistance genes, respectively and stable EphA3/HEK293 or ephrin-A5/HEK293 clones derived accordingly. Serum-starved cells were stimulated (10 min) with 1.5 ug/ml pre-clustered ephrinA5-Fc and harvested, as described previously. Immunoprecipitation was with anti-EphA3 mAb IIIA4 (Boyd et al., 1992, J Biol. Chem. 267 3262-3267. or anti-HA mAb 3F10 (Roche) conjugated to beads, and Western blotting was performed using anti-ADAM10 (Biogenesis, UK), anti-ephrinA5 (R&D Systems) and anti-ephA3 (Lackmann et al., 1997, supra) antibodies.
Initially, we investigated whether ADAM10 interacts with either EphA3 or ephrin-A5 on the cell surface and how these interactions are affected upon Eph/ephrin complex formation. […]

binding result [2]	Molecule	ephrin-A5 cleavage [1]	ephrin cleavage from the cell surface and internalisation (HEK293 cells)
	wt-ADAM10: full length, wild-type ADAM10 overexpressed in cells (protein, left off: small tags and cut ends, full length, wild-type ADAM10 overexpressed in cells) TTVAEKNTCQLYIQTDHLFFKYYGTREAVIAQISSHVKAIDTIYQTTDFSGIRNISFMVKRIRINTTADEKDPTNPFRFPNIGVEKFLELNSEQNHDDYCLAYVFTDRDFDDGVLGLAWVGAPSGSSGGICEKSKLYSDGKKKSLNTGIITVQNYGSHVPPKVSHITFAHEVGHNFGSPHDSGTECTPGESKNLGQKENGNYIMYARATSGDKLNNNKFSLCSIRNISQVLEKKRNNCFVESGQPICGNGMVEQGEECDCGYSDQCKDECCYDANQPEGKKCKLKPGKQCSPSQGPCCTAHCAFKSKTEKCRDDSDCAKEGICNGITALCPASDPKPNFTDCNRHTQVCINGQCAGSICEKHGLEECTCASSDGKDDKELCHVCCMKKMEPSTCASTGSVQWNKYFLGRTITLQPGSPCNDFRGYCDVFMRCRLVDADGPLARLKKAIFSPELYENIAEWIVAYWWAVLLMGIALIMLMAGFIKICSVHTPSSNPKLPPPKPLPGTLKRRRPPQPIQQPQRQRPRESYQMGHMRR	did not increase ephrin cleavage above control levels	readily noticeable
binds	endogenous ADAM10 (HEK293 and LiBr melanoma cells) (enzyme, human, UniProt O14672 214-748, looked up, whole, on cells; Both pro and mature forms are marked on the blot; also called pro (unprocessed) and mature (processed) forms) TTSAEKNTCQLYIQTDHLFFKYYGTREAVIAQISSHVKAIDTIYQTTDFSGIRNISFMVKRIRINTTADEKDPTNPFRFPNIGVEKFLELNSEQNHDDYCLAYVFTDRDFDDGVLGLAWVGAPSGSSGGICEKSKLYSDGKKKSLNTGIITVQNYGSHVPPKVSHITFAHEVGHNFGSPHDSGTECTPGESKNLGQKENGNYIMYARATSGDKLNNNKFSLCSIRNISQVLEKKRNNCFVESGQPICGNGMVEQGEECDCGYSDQCKDECCFDANQPEGRKCKLKPGKQCSPSQGPCCTAQCAFKSKSEKCRDDSDCAREGICNGFTALCPASDPKPNFTDCNRHTQVCINGQCAGSICEKYGLEECTCASSDGKDDKELCHVCCMKKMDPSTCASTGSVQWSRHFSGRTITLQPGSPCNDFRGYCDVFMRCRLVDADGPLARLKKAIFSPELYENIAEWIVAHWWAVLLMGIALIMLMAGFIKICSVHTPSSNPKLPPPKPLPGTLKRRRPPQPIQQPQRQRPRESYQMGHMRR		
